Assay results published in article PMC8726686.

How the values were obtained:
[1] = target: JS016-WT (wild-type control antibody); test: BLI
[2] = target: Fc gamma receptor Type IIIa, FcγRIIIa (F176) (human) (UniProt P08637); test: BLI
Sequence of UniProt P08637 (P08637 17-254): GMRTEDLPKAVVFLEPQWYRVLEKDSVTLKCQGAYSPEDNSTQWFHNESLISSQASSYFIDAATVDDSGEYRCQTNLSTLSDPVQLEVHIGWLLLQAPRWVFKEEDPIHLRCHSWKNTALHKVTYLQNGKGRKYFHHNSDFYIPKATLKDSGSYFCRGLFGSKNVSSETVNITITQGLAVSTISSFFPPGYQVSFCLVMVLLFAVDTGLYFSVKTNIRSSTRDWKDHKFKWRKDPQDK

Work on “C1q (first subcomponent of the C1 complex)” yielded a Kd [1] of 2.12 nM.

In the case of JS016-WT (wild-type control antibody), the Kd [2] is reported as 2000 nM.
